Source: article PMC7744796, “Prolyl isomerization controls activation kinetics of a cyclic nucleotide-gated ion channel” (Nature Communications, 2020)
“And” between values parts separate entries of the source, which are not always exact repeats. Identical values can stand only once.

Experiments:
[1] = system: SthK P300A; assay: Stopped-flow Tl+ flux assay, SthK P300A in proteo-liposomes; assay type: biochemical, Spirochaeta thermophila; conditions: SthK P300A + SlyD; for averaged rate: mean of normalized rates; for normalized rate: single replicates
From the text: (§1) In all cyclic nucleotide-gated channels the connection between the C-linker and the CNBD is formed by a helix-loop-helix motif called the siphon. […] This proline had not been previously implicated in prolyl isomerization in HCN channels or SthK. Due to steric restrictions and the lack of an amide-proton, prolines are only rarely found at the C-termini of α-helices[20],[21]. To test whether this unusual proline (Pro300, Fig. 1a, b) plays a role in channel activation, we employed a fluorescence-based stopped-flow assay to measure activation kinetics of a SthK mutant where the proline was substituted by an alanine.
(§2) All stopped-flow experiments were performed at 25 °C using a SX.20 sequential mixing fluorescence spectrophotometer (Applied Photophysics, Leatherhead, UK) controlled using ProDataSX as described before. In order to prepare liposomes for the Tl^+ flux assays 15 mg of DOPC:POPG:Cardiolipin (5:3:2, w/w/w) in chloroform were dried to a thin film in glass tubes under constant N2 flow and further dried under vacuum overnight. […] The sample was incubated at 21 °C under constant agitation for 3 h, the supernatant was transferred to a new glass tube and stored at 13 °C overnight. […] The liposome solution was diluted 5-times in sample buffer right before the experiments to ensure a good signal-to-noise ratio.
(§3) For the time course of activation in the presence of PPIases 2 µM of enzyme were added to the liposome solution and incubated for at least 10 min before the experiment yielding 1 µM of enzyme in the aging loop (after the first mixing event).
(§4) During one experiment, at least seven technical repeats were performed for each data point, every repeat was visually inspected for its quality, mixing artifacts were sorted out and the remaining repeats (typically 6–7 technical repeats) were analyzed separately in Matlab using a stretched exponential function (Eq. (2)) and the rate of Tl^+ influx into liposomes was calculated at 2 ms according to Eq. (3). 5000 data points were recorded over 1 s, however, to obtain the initial rate of Tl^+ influx only the first 100 ms were analyzed. The use of a stretched exponential function is necessary since the sizes of the liposomes vary and different amounts of channel proteins can be incorporated in different liposomes.2 Ft=F∞+F0−F∞⋅e^−t/τ^β 3 kt=β/τ⋅0.002s/τ^β−1 with Ft, F∞, F0 being the fluorescence at time t, the final fluorescence and the initial fluorescence, respectively. t is the time (in s), τ the time constant (in s) and β the stretched exponential factor. kt is the calculated rate (in s^−1) of Tl^+ influx at 2 ms.
(§5) The calculated rates kt were then averaged and the standard deviation (S.D.) was determined. Each experiment was independently repeated at least three times, the obtained rate constants were normalized, averaged and the S.D. was determined.
(§6) All further analysis was performed in GraFit. For the time course of channel activation, the rates were plotted as a function of the delay time in the first mixing step and fitted according to a double exponential.

[2] = system: WT SthK; assay: Stopped-flow Tl+ flux assay, WT SthK in proteo-liposomes; assay type: biochemical, Spirochaeta thermophila; set-up: key to averaged rate: normalized Tl+ influx rate at 2 ms (unitless, relative)
From the text: as §1, §2, §3, §4, §5, §6

[3] = system: Abz-Ala-Glu-Pro-Phe-pNA; assay: Peptide-based isomerization assay, PPIase activity, Glu substrate; assay type: biochemical
Procedure: (§7) To determine the activity of PPIases, peptides with either Leu or Glu preceding the Pro were used. Buffer and the desired concentration of PPIase were mixed in a QS quartz cuvette (Hellma Analytics) and incubated for 2 min under constant stirring. Peptide was added and the fluorescence increase was monitored.

[4] = system: Abz-Ala-Leu-Pro-Phe-pNA; assay: Peptide-based isomerization assay, PPIase activity, Leu substrate; assay type: biochemical
Procedure: as §7

[5] = 1 µM PPIase, 100 µM cAMP, delay time 0.012 s
[6] = 1 µM PPIase, 100 µM cAMP, delay time 0.050 s
[7] = 1 µM PPIase, 100 µM cAMP, delay time 0.100 s
[8] = 1 µM PPIase, 100 µM cAMP, delay time 0.500 s
[9] = 1 µM PPIase, 100 µM cAMP, delay time 1.000 s
[10] = 1 µM PPIase, 100 µM cAMP, delay time 2.500 s
[11] = 1 µM PPIase, 100 µM cAMP, delay time 5.000 s
[12] = 1 µM PPIase, 100 µM cAMP, delay time 10.000 s
[13] = [PPIase] 10 pM, 12 ms with 100 µM cAMP
[14] = [PPIase] 100 pM, 12 ms with 100 µM cAMP
[15] = [PPIase] 1e-8 M, 12 ms with 100 µM cAMP
[16] = [PPIase] 1e-7 M, 12 ms with 100 µM cAMP
[17] = [PPIase] 1e-6 M, 12 ms with 100 µM cAMP
[18] = [PPIase] 1e-5 M, 12 ms with 100 µM cAMP

B1: SlyD: bacterial FKBP-type isomerase (UniProt P0A9K9, residues 1–165) (protein, UniProt P0A9K9 1-165, looked up, fragment)
chain: MKVAKDLVVSLAYQVRTEDGVLVDESPVSAPLDYLHGHGSLISGLETALEGHEVGDKFDVAVGANDAYGQYDENLVQRVPKDVFMGVDELQVGMRFLAETDQGPVPVEITAVEDDHVVVDGNHMLAGQNLKFNVEVVAIREATEEELAHGHVHGAHDHHHDHDHD
averaged rate ([1]; delay time 0.010 s): 1.007
normalized rate ([1]; delay time 0.010 s): 1.011 and 0.947
averaged rate ([1]; delay time 0.025 s): 0.973
normalized rate ([1]; delay time 0.025 s): 0.800
averaged rate ([1]; delay time 0.050 s): 0.981
normalized rate ([1]; delay time 0.050 s): 0.892 and 1.105
averaged rate ([1]; delay time 0.100 s): 0.894
normalized rate ([1]; delay time 0.100 s): 1.000 and 0.795 and 0.887
averaged rate ([1]; delay time 0.250 s): 1.060
normalized rate ([1]; delay time 0.250 s): 1.026 and 1.272 and 0.881
averaged rate ([1]; delay time 0.500 s): 1.153
normalized rate ([1]; delay time 0.500 s): 1.146 and 1.160
averaged rate ([1]; delay time 1.000 s): 1.068
normalized rate ([1]; delay time 1.000 s): 1.172
averaged rate ([1]; delay time 2.500 s): 1.001
normalized rate ([1]; delay time 2.500 s): 1.067 and 1.000
averaged rate ([1]; delay time 5.000 s): 0.966
normalized rate ([1]; delay time 5.000 s): 1.000 and 0.922
averaged rate ([1]; delay time 10.000 s): 0.867
normalized rate ([1]; delay time 10.000 s): 0.930 and 0.866 and 0.804
averaged rate [2, 5]: 1.130
normalized rate [2, 5]: 0.993 and 1.357 and 1.239 and 1.025 and 1.202 and 0.960
averaged rate [2, 6]: 1.035
normalized rate [2, 6]: 1.008 and 0.974 and 1.215 and 1.144 and 1.115 and 0.926 and 0.860
averaged rate [2, 7]: 0.965
normalized rate [2, 7]: 0.986 and 0.930 and 0.972 and 1.038 and 1.181 and 0.964 and 0.683
normalized rate ([2]; 1 µM PPIase, 100 µM cAMP, delay time 0.250 s): 0.815 and 0.934 and 1.134 and 1.296 and 1.074 and 0.872
averaged rate [2, 8]: 0.978
normalized rate [2, 8]: 0.911 and 0.879 and 0.973 and 1.305 and 0.757 and 1.021 and 1.000
averaged rate [2, 9]: 0.917
normalized rate [2, 9]: 0.846 and 1.000 and 0.945 and 0.918 and 0.791 and 0.664
averaged rate [2, 10]: 0.942
normalized rate [2, 10]: 0.974 and 0.975 and 0.900 and 0.886 and 0.933 and 1.068
averaged rate [2, 11]: 1.014
normalized rate [2, 11]: 0.948 and 0.912 and 0.942 and 1.000 and 1.421 and 0.879
averaged rate [2, 12]: 0.922
normalized rate [2, 12]: 1.000 and 0.963 and 0.916 and 0.966 and 0.900 and 0.827 and 0.883
effect on SthK activation (slow activation phase) ([2]; 1 µM protein, 100 µM cAMP): abolished
EC50 ([2]; PPIase concentration dependence of normalized Tl+ flux rate, 12 ms incubation with 100 µM cAMP): ~30 nM
averaged rate [2, 13]: 0.622
normalized rate [2, 13]: 0.592 and 0.562 and 0.636 and 0.697
averaged rate [2, 14]: 0.685
normalized rate [2, 14]: 0.710 and 0.760 and 0.585
normalized rate ([2]; [PPIase] 1e-9 M, 12 ms with 100 µM cAMP): 0.755 and 0.566 and 0.775 and 0.750
averaged rate [2, 15]: 0.814
normalized rate [2, 15]: 0.965 and 0.565 and 0.822 and 0.905
averaged rate [2, 16]: 0.961
normalized rate [2, 16]: 1.083 and 0.844 and 0.962 and 0.956
averaged rate [2, 17]: 0.999
normalized rate [2, 17]: 1.000 and 0.992 and 1.006
averaged rate [2, 18]: 1.000
normalized rate [2, 18]: 1.000
apparent rate ([3]; KCl, EPF substrate, 2 nM enzyme): 0.026 s⁻¹ and 0.024 s⁻¹
apparent rate ([3]; KCl, EPF substrate, 5 nM enzyme): 0.025 s⁻¹ and 0.026 s⁻¹
apparent rate ([3]; KCl, EPF substrate, 10 nM enzyme): 0.024 s⁻¹ and 0.025 s⁻¹
apparent rate ([3]; KCl, EPF substrate, 15 nM enzyme): 0.025 s⁻¹ and 0.024 s⁻¹
apparent rate ([3]; KNO3, EPF substrate, 2 nM enzyme): 0.023 s⁻¹ and 0.027 s⁻¹
apparent rate ([3]; KNO3, EPF substrate, 5 nM enzyme): 0.024 s⁻¹ and 0.029 s⁻¹ and 0.027 s⁻¹
apparent rate ([3]; KNO3, EPF substrate, 10 nM enzyme): 0.028 s⁻¹ and 0.024 s⁻¹ and 0.026 s⁻¹
apparent rate ([3]; KNO3, EPF substrate, 15 nM enzyme): 0.024 s⁻¹ and 0.027 s⁻¹
apparent rate ([4]; KCl, LPF substrate, 2 nM enzyme): 0.041 s⁻¹ and 0.044 s⁻¹ and 0.045 s⁻¹
apparent rate ([4]; KCl, LPF substrate, 5 nM enzyme): 0.051 s⁻¹ and 0.061 s⁻¹ and 0.048 s⁻¹
apparent rate ([4]; KCl, LPF substrate, 10 nM enzyme): 0.068 s⁻¹ and 0.054 s⁻¹ and 0.069 s⁻¹
apparent rate ([4]; KCl, LPF substrate, 15 nM enzyme): 0.053 s⁻¹ and 0.072 s⁻¹ and 0.063 s⁻¹
apparent rate ([4]; KNO3, LPF substrate, 2 nM enzyme): 0.049 s⁻¹ and 0.043 s⁻¹ and 0.048 s⁻¹
apparent rate ([4]; KNO3, LPF substrate, 5 nM enzyme): 0.062 s⁻¹ and 0.056 s⁻¹ and 0.074 s⁻¹
apparent rate ([4]; KNO3, LPF substrate, 10 nM enzyme): 0.072 s⁻¹ and 0.045 s⁻¹
apparent rate ([4]; KNO3, LPF substrate, 15 nM enzyme): 0.062 s⁻¹ and 0.069 s⁻¹ and 0.077 s⁻¹
